Laboratory results as given in patent US20260242497A1 (VIAL HEALTH TECHNOLOGY, published 2026).
Positions count from the first letter of the chain named. Numbers in names are those of the source. Where “and” joins values, the source holds several entries; their conditions need not be identical. Identical values can stand only once.

T1: TL1A (antigen of Examples 1 and 2, species not stated) (UniProt O95150 57-251, limits assumed)
T1 construct: also called recombinant purified antigen; TNFSF15
T1 sequence (looked up): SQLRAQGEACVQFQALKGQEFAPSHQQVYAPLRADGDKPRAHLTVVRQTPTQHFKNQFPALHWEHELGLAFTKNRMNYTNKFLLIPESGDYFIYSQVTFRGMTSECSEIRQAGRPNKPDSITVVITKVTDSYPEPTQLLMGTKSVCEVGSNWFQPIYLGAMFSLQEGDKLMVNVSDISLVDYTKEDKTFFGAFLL

T2: biotinylated recombinant human TL1A (human, UniProt O95150 57-251, limits assumed, biotinylated (sites not given))
T2 sequence: T1 sequence (looked up)

B1: AB_TL1A_02_004 (antibody, human IgG1, kappa)
heavy: QVQLVQSGAEVKKPGASVKVSCKASGYDFTYYGISWVRQAPGQGLEWMGWISPYNGNTHYAQKLQGRVTMTTDTSTRTAYMELRSLRSDDTAVYYCARENYYGSGAYRGGMDVWGQGTTVTVSSASTKGPSVFPLAPSSKSTSGGTAALGCLVKDYFPEPVTVSWNSGALTSGVHTFPAVLQSSGLYSLSSVVTVPSSSLGTQTYICNVNHKPSNTKVDKKVEPKSCDKTHTCPPCPAPEAAGAPSVFLFPPKPKDTLMISRTPEVTCVVVDVSHEDPEVKFNWYVDGVEVHNAKTKPREEQYNSTYRVVSVLTVLHQDWLNGKEYKCKVSNKALPAPIEKTISKAKGQPREPQVYTLPPSREEMTKNQVSLTCLVKGFYPSDIAVEWESNGQPENNYKTTPPVLDSDGSFFLYSKLTVDKSRWQQGNVFSCSVMHEALHNHYTQKSLSLSPG
light: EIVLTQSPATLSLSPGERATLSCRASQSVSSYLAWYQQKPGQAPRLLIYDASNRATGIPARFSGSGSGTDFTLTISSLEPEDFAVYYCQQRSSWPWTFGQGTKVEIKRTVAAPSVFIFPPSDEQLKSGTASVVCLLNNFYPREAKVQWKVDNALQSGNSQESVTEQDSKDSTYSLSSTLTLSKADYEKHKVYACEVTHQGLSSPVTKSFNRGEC
B2: AB_TL1A_02_004 with a C-terminal fused assay tag (prokaryotic in vitro translation, BLI of Example 1) (antibody, human IgG1, kappa)
heavy: B1 heavy
light: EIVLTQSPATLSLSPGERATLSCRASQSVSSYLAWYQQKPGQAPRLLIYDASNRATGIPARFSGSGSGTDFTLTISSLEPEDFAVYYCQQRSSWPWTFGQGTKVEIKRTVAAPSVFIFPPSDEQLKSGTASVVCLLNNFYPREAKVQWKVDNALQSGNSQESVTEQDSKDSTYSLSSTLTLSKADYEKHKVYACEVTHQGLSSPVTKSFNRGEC
B3: AB_TL1A_02_004_HL4 (antibody, human IgG1, kappa)
heavy: B1 heavy with H440K, N441F
light: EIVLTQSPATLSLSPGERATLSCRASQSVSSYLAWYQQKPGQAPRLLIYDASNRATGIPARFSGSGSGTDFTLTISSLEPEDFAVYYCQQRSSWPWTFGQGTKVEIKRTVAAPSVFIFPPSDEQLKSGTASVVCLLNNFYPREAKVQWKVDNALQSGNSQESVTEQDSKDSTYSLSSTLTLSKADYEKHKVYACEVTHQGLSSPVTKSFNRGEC
notes: built from the name and the HLE mutation column
B4: AB_TL1A_02_004_HL2 (antibody, human IgG1, kappa)
heavy: B1 heavy with M435L, N441S
light: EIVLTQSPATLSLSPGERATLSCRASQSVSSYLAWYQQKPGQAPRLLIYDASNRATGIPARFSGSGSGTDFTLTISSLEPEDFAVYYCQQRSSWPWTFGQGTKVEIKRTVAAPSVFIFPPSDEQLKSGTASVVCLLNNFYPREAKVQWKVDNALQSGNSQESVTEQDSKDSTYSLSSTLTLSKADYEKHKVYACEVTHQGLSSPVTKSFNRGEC
notes: HLE mutations M428L, N434S
B5: RVT-3101 (antibody, human IgG1, kappa)
heavy: B1 heavy with P53T, Q62R, K63M
light: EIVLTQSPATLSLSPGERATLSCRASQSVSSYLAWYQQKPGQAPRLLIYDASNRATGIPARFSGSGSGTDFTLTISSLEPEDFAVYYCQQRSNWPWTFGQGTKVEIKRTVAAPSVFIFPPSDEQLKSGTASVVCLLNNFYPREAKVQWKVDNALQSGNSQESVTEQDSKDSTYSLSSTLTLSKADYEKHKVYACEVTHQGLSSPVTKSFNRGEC
notes: Comparator anti-TL1A antibody, no HLE mutation; also called RVT-3101 (Roche); anti-TL1A comparator antibody
B6: AB_TL1A_02_004_HL9 (antibody, human IgG1, kappa)
heavy: B1 heavy with Q318R, M435L, H440K, N441F
light: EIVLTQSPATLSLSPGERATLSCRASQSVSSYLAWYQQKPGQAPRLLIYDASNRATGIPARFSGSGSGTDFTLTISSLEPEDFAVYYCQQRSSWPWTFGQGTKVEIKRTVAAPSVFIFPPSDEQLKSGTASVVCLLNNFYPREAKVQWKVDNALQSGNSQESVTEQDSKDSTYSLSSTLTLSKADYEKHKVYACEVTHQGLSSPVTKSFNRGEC
notes: as for B3

How the values were obtained:
[1] = target: T1, TL1A (antigen of Examples 1 and 2, …); experiment: SPR, Biacore 8K, Protein A chip, antibody captured, antigen as analyte
Method: (§1) To perform SPR analysis using the Biacore 8K and Protein A Chip, the chip was equilibrated with Running Buffer (1×HBS-EP+). A solution of the capture ligand (0.35 μg/mL antibody) was prepared in Running Buffer and injected over the chip surface at a flow rate of 10 μL/min for 30 sec until a stable capture level of about 210-470 RU was achieved, followed by washing to remove excess ligand. For sample analysis, analyte samples were prepared in Running Buffer and injected over the chip surface at a flow rate of 30 μL/min for association (180 seconds) and dissociation (3600 seconds). The chip surface was regenerated between sample injections using a regeneration buffer such as 10 mM Gly-HCl, pH 1.5 at a flow rate of 30 μL/min. Sensorgram data was analyzed to determine binding kinetics and affinity, and the steps were repeated for additional samples as needed. The chip was thoroughly washed and regenerated after the experiment, and stored according to manufacturer's recommendations. The data was analyzed using Biacore evaluation software to calculate kinetic parameters for observed interactions.

[2] = target: T3, human FcRn (human, UniProt P55899 24-297; P61769 21-119); experiment: SPR, Biacore 8K, CM5 chip, antibody immobilised, human FcRn as analyte, pH 6.0
T3 construct: also called neonatal Fc receptor
Method: (§2) The 1×PBST running buffer was prepared at both pH 6.0 and pH 7.4. Kinetic measurements were obtained for association and dissociation times of 60 and 90 seconds, respectively, at a flow rate of 30 μL/min. The CM5 chips were regenerated with 1×PBS (pH 7.4). Kinetic parameters for the concentration series at both pHs were fit to a steady state affinity model and averaged using the Biacore Evaluation Software. Each concentration series was fit independently to obtain the average rates and binding affinities.
SPR analysis was performed using a Bioacore 8K instrument and a CM5 with the antibody immobilized at 10 g/mL concentration, as above.

[3] = target: T2, biotinylated recombinant human TL1A; experiment: competition ELISA, blocks biotinylated human TL1A (3.5 nM) binding to coated DR3/Fc
Method: (§3) Plates were coated with 4 g/mL of DR3/Fc or 1 g/mL of DcR3/Fc by adding 100 μL per well, and were incubated overnight at 4° C. 1×PBST was added at 200 μL per well, and after a 10-second incubation, the liquid was poured out and the plate was pat dried on blotting paper. This process was repeated three times. The plates were then blocked with 2% BSA in 1×PBST at 200 μL per well for 2 hours at room temperature (RT), followed by a similar washing step. […] This mixture was then added to the DR3/Fc or DcR3/Fc coated wells and incubated at RT for 1 hour. Further washing steps were performed, followed by the addition of a secondary antibody at 100 μL per well, which was incubated at RT for 0.5 hours. Additional washing steps were conducted, and TMB was added to each well at 100 μL and incubated at RT for 15 minutes. The reaction was stopped with 100 μL of 2M HCl stop solution per well, and the plates were read with a microplate reader at 450 nm. For buffer preparation, coating buffer consisted of 1×PBS, washing buffer was 0.05% tween-20 in 1×PBS, blocking buffer was 1% BSA in 1×PBST, and both test antibody dilution buffer and secondary antibody dilution buffer were prepared using blocking buffer.

[4] = target: T1, TL1A (antigen of Examples 1 and 2, …); experiment: SPR, Biacore 8K, Protein A chip, antibody captured, antigen as analyte (second line)
Method: as §1

[5] = target: T2, biotinylated recombinant human TL1A; experiment: competition ELISA, blocks biotinylated human TL1A (3.5 nM) binding to coated DcR3/Fc
Method: as §3

[6] = target: T3, human FcRn; experiment: SPR, Biacore 8K, CM5 chip, antibody immobilised, human FcRn as analyte, pH 6.0, steady-state affinity fit
Method: as §2

[7] = target: T1, TL1A (antigen of Examples 1 and 2, …); experiment: BLI (Gator Bio), tagged antibody on Strep-Tactin XT probes, recombinant purified antigen as analyte, 25 C
Method: Materials utilized in the assay included K Buffer (Assay Buffer) containing 0.02% BSA and 0.002% Tween-20 in PBS, pH 7.4, sourced from Gator Bio, Regen Buffer comprising 10 mM Glycine, pH 1.7, from Gator Bio, and Strep-Tactin XT probes. The protocol involved preparing samples of interest by diluting them in Assay Buffer, then performing analyte dilution series by diluting recombinant purified antigen into assay buffer to the correct target concentration. Samples were loaded into a sample plate and positioned in the plate positions on the BLI device. The assay was conducted in a temperature-controlled environment at 25° C. with shaking conditions set to 1000 rpm, recording data at a frequency of 5 Hz. Protocol cycles included Initial Baseline, Sample Loading, Baseline, Second Baseline, Association, and Dissociation steps. Probes were regenerated after each cycle following a recommended protocol of regeneration and neutralization. This cycle was repeated for every subsequent analyte concentration, typically ranging from 4 to 6 concentrations.

[8] = target: T1, TL1A (antigen of Examples 1 and 2, …); experiment: cell-based or functional assay
[9] = target: T3, human FcRn; experiment: SPR, Biacore 8K, CM5 chip, FcRn, pH 6.0
Method: FcRn binding kinetics at pH 6.0 and pH 7.4 were measured using a Biacore® 8K instrument (Cytiva) with a CM5 chip.

T3 sequence (P55899 24-297 limits assumed, chain 1 of 2): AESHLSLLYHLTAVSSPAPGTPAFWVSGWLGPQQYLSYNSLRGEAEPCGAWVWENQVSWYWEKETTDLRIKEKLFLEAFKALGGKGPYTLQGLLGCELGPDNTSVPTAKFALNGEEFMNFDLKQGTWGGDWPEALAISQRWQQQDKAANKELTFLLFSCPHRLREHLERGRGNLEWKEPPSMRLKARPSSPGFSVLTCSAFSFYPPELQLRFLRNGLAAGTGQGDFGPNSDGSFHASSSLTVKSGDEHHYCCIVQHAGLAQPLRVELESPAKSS
T3 sequence (P61769 21-119 limits assumed, chain 2 of 2): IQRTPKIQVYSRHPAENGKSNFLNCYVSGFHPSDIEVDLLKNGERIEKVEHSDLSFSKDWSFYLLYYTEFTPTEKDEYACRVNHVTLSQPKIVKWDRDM

Row | Binder | Kd [1] [nM] | Kd [2] | IC50 [3] [nM] | IC50 [5] [nM] | Kd [6] | Fold Increase (FI) relative to RVT-3101 [6] [fold] | also measured
1 | B1 | < 0.0256 | 2430 nM and 2240 nM | 0.92 to 1.01 | 1.2 to 1.51 | 2430 nM and 2240 nM |  | Kd [4]: < 0.0469 nM
2 | B2 |  |  |  |  |  |  | Kd [7]: 5.17 nM and 5 nM; kon [7]: 380000 M⁻¹ s⁻¹
3 | B3 |  |  |  |  | 132 nM | 18.5 | 
4 | B4 | < 0.0262 | 159 nM and 190 nM | 0.58 | 1.3 |  |  | IC50 (nM), inhibition of TL1A-induced apoptosis of TF-1 cells (Caspase-Glo 3/7) [8]: 0.87 nM; max inhibition of TL1A-induced apoptosis of TF-1 cells [8]: 95%; Kd [9]: 159 nM and 190 nM
5 | B5 |  | 2440 nM and 2450 nM and 2460 nM |  |  | 2440 nM and 2450 nM and 2460 nM | 1 | Fold Increase (FI) relative to Rituximab [2]: 0.9 fold
6 | B6 |  | 36 nM and 43.3 nM |  |  | 36 nM and 43.3 nM |  | 
